Laboratory results reported in PMC4895024.
Values belong to the substance of their own block, whether it stands above or below them.

What was measured:
[1] = target: integrin αIIbβ3 exogenously expressed on CHO and COS-7 cells, P08514;P05106; test: cell attachment assay (cells on protein-coated plate); details: read off a plot
[2] = target: integrin αvβ3 exogenously expressed on CHO and COS-7 cells, P06756;P05106; test: as above; details: read off a plot
[3] = target: integrin αvβ3 on HUVEC cells, P06756;P05106; test: as above
[4] = target: ProAgio (D1-CD2 variant 3) (UniProt P06729); test: as above; details: CHO cells expressing αvβ3 wild type or β3-KKQ; parent: est. 190; read off a plot; scale: cells attached/field
[5] = target: ProAgio (D1-CD2 variant 3) (not stated (human and rat D1-CD2 are named)) (UniProt P06729); test: cell attachment assay; culture plates coated with ProAgio; cells cultured 35 min, washed three times, attached cells counted per view field; some runs with 5 μM Cilengitide or 40 μg/ml antibody LM609
Sequence of ProAgio (D1-CD2 variant 3) (not stated (human and rat D1-CD2 are named)) (P06729 25-206, change not shown): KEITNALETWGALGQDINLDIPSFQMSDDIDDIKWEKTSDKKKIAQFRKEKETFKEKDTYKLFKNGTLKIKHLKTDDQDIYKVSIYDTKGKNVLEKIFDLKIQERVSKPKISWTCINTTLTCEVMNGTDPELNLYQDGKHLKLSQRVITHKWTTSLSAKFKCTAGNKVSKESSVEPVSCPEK

response (cells attached/field) ([1]; CHO cells expressing αIIbβ3): 50
response (cells attached/field) ([1]; COS-7 cells expressing αIIbβ3): 50
response (cells attached/field) ([2]; CHO cells expressing αvβ3 (CHOαVβ3), parent: est. 100): 350
response (cells attached/field) ([2]; CHO cells expressing αvβ3): 280
response (cells attached/field) ([2]; COS-7 cells expressing αvβ3 (COS7αVβ3), parent: est. 90): 310
response (cells attached/field) ([2]; COS-7 cells expressing αvβ3): 350
response (cells attached/field) ([3]; 40 μg ml−1 antibody LM609 (bar is labelled 'Cilengitide' in the image), read off a plot): 280
response (cells attached/field) ([3]; BSA as control, read off a plot): 310
response (cells attached/field) ([3]; IgG as control, read off a plot): 340
response (cells attached/field) ([3]; in the presence of 5 μM of Cilengitide, read off a plot): 230
response (cells attached/field) ([3]; parent: est. 45, read off a plot): 290
Substance: D1-CD2 D99N; I102V; Q103I; E104I; E83T; T9V; W10Q; G11M; A12K

response [4]: 44
Substance: integrin αvβ3 exogenously expressed on CHO and COS-7 cells (from UniProt P06756;P05106) β3-KKQ

fold less attachment than αvβ3-expressing cells [5]: > 3 fold
Substance: integrin αvβ5 expressed on COS-7 cells (from UniProt P06756 31-1048; P18084 24-799) (receptor)
